Results taken from article PMC9561612.

Biological target: CXCR4 receptor (human (endogenous in MDA-MB-231)) (UniProt P61073)
Sequence of UniProt P61073 (P61073 whole entry): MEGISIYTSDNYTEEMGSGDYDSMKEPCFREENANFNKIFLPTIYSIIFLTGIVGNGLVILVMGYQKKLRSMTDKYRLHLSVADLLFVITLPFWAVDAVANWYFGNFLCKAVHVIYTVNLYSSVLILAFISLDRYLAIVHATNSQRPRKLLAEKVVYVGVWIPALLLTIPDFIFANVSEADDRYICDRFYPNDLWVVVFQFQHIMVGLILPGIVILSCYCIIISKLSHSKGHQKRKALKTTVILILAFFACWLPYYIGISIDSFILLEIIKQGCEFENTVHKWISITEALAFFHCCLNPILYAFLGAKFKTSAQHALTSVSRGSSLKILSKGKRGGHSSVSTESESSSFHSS

- cytoplasmic Ca2+ release in MDA-MB-231 cells (Fura-2), dose response to OHD (4–12), EC50: 1.3 nM
Substance: OHD_(4–12) (Obligate HeteroDimer CXCL4–CXCL12) (from UniProt P48061-2 22-89) (complex)
